The text below walks through data of paper PMC7665200, “Mus81-Mms4 endonuclease is an Esc2-STUbL-Cullin8 mitotic substrate impacting on genome integrity” (Nature Communications, 2020).

In this experiment the target is T1, GST-Esc2 (Saccharomyces cerevisiae, UniProt Q06340 1-456).
T1 construct: Esc2, Saccharomyces cerevisiae, full-length gene cloned into BamHI/SalI of pGEX-6P-2; pGEX-6P-2 should place GST at the N-terminus (surmised from the vector); also called recombinant glutathione S-transferase (GST)-Esc2; GST-tagged Esc2; source: E. coli BL21 (DE3), purified (glutathione-Sepharose 4B, eluted with reduced glutathione, dialysed)
T1 sequence (looked up): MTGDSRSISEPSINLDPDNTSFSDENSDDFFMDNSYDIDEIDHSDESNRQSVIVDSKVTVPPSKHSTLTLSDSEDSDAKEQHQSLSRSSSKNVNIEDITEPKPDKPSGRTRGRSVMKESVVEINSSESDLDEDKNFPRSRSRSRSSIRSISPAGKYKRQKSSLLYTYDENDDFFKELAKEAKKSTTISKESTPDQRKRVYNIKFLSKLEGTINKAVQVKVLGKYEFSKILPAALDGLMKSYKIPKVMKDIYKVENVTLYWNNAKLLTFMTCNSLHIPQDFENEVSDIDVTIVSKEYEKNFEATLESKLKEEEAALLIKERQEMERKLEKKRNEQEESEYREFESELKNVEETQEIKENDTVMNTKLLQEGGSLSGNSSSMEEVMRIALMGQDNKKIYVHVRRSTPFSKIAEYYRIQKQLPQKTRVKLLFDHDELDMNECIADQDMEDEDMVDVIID
The experiment is described as follows: peptide or protein array; PEPperPRINT microarray of 15-aa peptides covering the entire Mms4 and Mus81 with 14-aa overlaps, printed in duplicate; purified GST-Esc2 in solution, detected with anti-GST DyLight680. Particulars: both partners purified.

B1: Mus81 peptide EKGTKKRKTRKYIPK (peptide)
peptide: EKGTKKRKTRKYIPK
notes: 15-aa stretch of Mus81, S. cerevisiae; Immobilised on the array; It is printed as the 'consensus motif' of a response peak of overlapping 15-mers; source: synthetic peptide, printed on a peptide microarray (PEPperPRINT GmbH)
For the molecule B1, the binding result was “binds”.

B2: Mms4 peptide RSKKSSQVGKLGIKK (peptide)
peptide: RSKKSSQVGKLGIKK
notes: 15-aa stretch of Mms4, S. cerevisiae; Immobilised on the array; It is printed as the 'consensus motif' of a response peak of overlapping 15-mers; source: synthetic peptide, printed on a peptide microarray (PEPperPRINT GmbH)
As for B2, the binding result was “binds”.
